US7067474B1, “Agents for treating human illnesses based on β-catenin, and the production and use thereof” (Max-Delbruck-Centrum fur Molekulare Medizin, priority 1998, dated 2006)
Numbering of substitutions follows the chain as printed.

B1: Lys 394: human β-catenin mutant, Lys 394 substituted by alanine (arm 7) (protein)
chain: LHNLSHHREGLLAIFKSGGIPALVKMLGSPVDSVLFYAITTLHNLLLHQEGAKMAVRLAGGLQKMVALLNKTNVKFLAITTDCLQILAYGNQESKLIILASGGPQALVNIMRTYTYEKLLWTTSRVLKVLSVCSSNKPAIVEAGGMQALGLHLTDPSQRLVQNCLWTLRNLSDAATAQEGMEGLLGTLVQLLGSDDINVVTCAAGILSNLTCNNYKNKMMVCQVGGIEALVRTVLRAGDREDITEPAICALRHLTSRHQEAEMAQNAVRLHYGLPVVVKLLHPPSHWPLIKATVGLIRNLALCPANHAPLREQGAIPRLVQLLVRAHQDTQRRTSMGGTQQQFVEGVRMEEIVEGCTGALHILARDVHNRIVIRGLNTIPLFVQLLYSPIENIQRVAAGVLCELAQDKEAAEAIEAEGATAPLTELLHSRNEGVATYAAAVLFRMSEDKPQDYKKRLSVELTSSLFRTEPMAWNETADLGLDIGAQGEPLGYRQDDPSYRSFHSGGYGQDALGMDPMMEHEMGGHHPGADYPVDGLPDLGHAQDLMDGLPPGDSNQLAWFDTDL
modifications: left off: large carriers; small tags and cut ends
B2: Arg 457: human β-catenin mutant, Arg 457 substituted by alanine (arm 8) (protein)
chain: B1 chain with A177K, R240A
modifications: left off: large carriers; small tags and cut ends

How the values were obtained:
[1] = target: conductin amino acids Ala342-Arg465 fused to Lex-A (vector BTM 116) (UniProt P0A7C2); experiment: yeast 2-hybrid, β-galactosidase reporter; percent of wild type β-catenin
[2] = target: human APC amino acids Ser1259-Asp1400 (APC 20 amino acid repeats) fused to Lex-A (vector BTM 116) (human); experiment: as above
[3] = target: human APC amino acids His1012-Glu1215 (APC 15 amino acid repeats) fused to Lex-A (vector BTM 116) (human); experiment: as above
LEF-1 = target: T1, LEF-1 (Mus musculus, UniProt P27782); experiment: yeast 2-hybrid: interaction of β-catenin mutants with LEF-1; assay type: binding; conditions: yeast 2-hybrid, alanine mutants
T1 construct: the cDNA of LEF-1 for the amino acids 1–99; expressed in transfected cells; host or cells: yeast (two-hybrid, Matchmaker, Clontech)

[4] = target: T2, APC (20 amino acid repeats) (Homo sapiens, UniProt P25054); experiment: yeast 2-hybrid: interaction of β-catenin mutants with APC 20 amino acid repeats; assay type: binding; conditions: yeast 2-hybrid, alanine mutants
T2 construct: for the amino acids Ser1259Asp 1400 (APC 20 amino acid repeats); expressed in transfected cells; host or cells: yeast (two-hybrid, Matchmaker, Clontech)
T2 sequence (P25054 1253-1394 limits assumed): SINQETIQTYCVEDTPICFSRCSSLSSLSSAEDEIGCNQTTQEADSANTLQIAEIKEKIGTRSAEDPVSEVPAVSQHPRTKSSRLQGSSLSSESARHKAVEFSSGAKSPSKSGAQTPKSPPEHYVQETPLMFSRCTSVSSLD
How it was run: (§1)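 Alanine-substituted human β-catenin mutants (armadillo repeat 3 to C-terminus, from Leu218) fused to Gal4 activation domain; partner fragments fused to LexA: E-cadherin Gln773–Asp884, APC His1012–Glu1215 or Ser1259–Asp1400, conductin Ala342–Arg465. Interaction quantified by β-galactosidase reporter activity in yeast.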

[5] = target: T3, APC (15 amino acid repeats) (Homo sapiens, UniProt P25054); experiment: yeast 2-hybrid: interaction of β-catenin mutants with APC 15 amino acid repeats; assay type: binding; conditions: yeast 2-hybrid, alanine mutants
T3 construct: of human APC for the amino acids His1012–Glu1215 (APC 15 amino acid repeats); expressed in transfected cells; host or cells: yeast (two-hybrid, Matchmaker, Clontech)
T3 sequence (P25054 1006-1209 limits assumed): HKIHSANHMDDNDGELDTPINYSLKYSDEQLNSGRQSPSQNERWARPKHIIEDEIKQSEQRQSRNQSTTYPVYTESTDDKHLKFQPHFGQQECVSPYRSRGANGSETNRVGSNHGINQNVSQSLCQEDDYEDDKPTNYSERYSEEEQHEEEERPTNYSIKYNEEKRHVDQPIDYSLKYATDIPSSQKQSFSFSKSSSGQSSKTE
How it was run: as §1

conductin = target: T4, conductin (Mus musculus, UniProt O88566); experiment: yeast 2-hybrid: interaction of β-catenin mutants with conductin; assay type: binding; conditions: yeast 2-hybrid, alanine mutants
T4 construct: conductin for the amino acids Ala342–ARG465; expressed in transfected cells; host or cells: yeast (two-hybrid, Matchmaker, Clontech)
How it was run: as §1

E-cadherin = target: T5, E-cadherin (Mus musculus, UniProt P09803); experiment: yeast 2-hybrid: interaction of β-catenin mutants with E-cadherin; assay type: binding; conditions: alanine mutants
T5 construct: E-cadherin for the amino acids Gin773–Asp884 (cytoplasmatic domain); expressed in transfected cells; host or cells: yeast (two-hybrid, Matchmaker, Clontech)
Protocol: The mutagenesis of β-catenin in the armadillo repeats 3–8 was carried out by means of the “mutagenesis kit” of the company Clontech according to the producer's record and the mutants were checked by sequencing (FIG. 5). In all mutants the original amino acid was substituted by alanine. For analyzing the interactions the cDNA of human β-catenin (armadillo repeat 3 up to the C-terminal end of the protein) coding for the amino acids Leu218–Leu7 μl or its mutants was cloned into the fusion vector for the activation domain of Gal-4 (pGAD424, Clontech). The cDNA for the binding domains of the interaction partners was cloned into the Lex-A fusion vector BTM 116. To this end, the cDNA of LEF-1 for the amino acids 1–99, conductin for the amino acids Ala342–ARG465; of human APC for the amino acids His1012–Glu1215 (APC 15 amino acid repeats) and for the amino acids Ser1259Asp 1400 (APC 20 amino acid repeats) and E-cadherin for the amino acids Gin773–Asp884 (cytoplasmatic domain) were amplified with the respective primers PCR. The interaction of the Lex-A hybrids with β-catenin and its mutants was quantified by means of the β-galactosidase reporter activity in the yeast 2-hybrid system (report: “Matchmaker”. Clontech) (Tab. 2 and FIG. 6).

Sequence of human APC amino acids Ser1259-Asp1400 (APC 20 amino acid repeats) fused to Lex-A (vector BTM 116) (human) (P0A7C2 other isoform, or with tags, fused parts or gaps limits assumed, form in doubt): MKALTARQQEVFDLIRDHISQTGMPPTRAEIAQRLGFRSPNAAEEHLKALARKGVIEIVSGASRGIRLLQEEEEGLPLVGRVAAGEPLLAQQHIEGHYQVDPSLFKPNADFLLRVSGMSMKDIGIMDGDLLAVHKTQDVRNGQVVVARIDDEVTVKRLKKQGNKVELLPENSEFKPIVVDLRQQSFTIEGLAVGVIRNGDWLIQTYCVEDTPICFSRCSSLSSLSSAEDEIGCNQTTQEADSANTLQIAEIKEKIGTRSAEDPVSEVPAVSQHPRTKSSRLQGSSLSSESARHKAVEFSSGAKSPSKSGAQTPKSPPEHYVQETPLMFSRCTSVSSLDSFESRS
Sequence of conductin amino acids Ala342-Arg465 fused to Lex-A (vector BTM 116) (P0A7C2 other isoform, or with tags, fused parts or gaps limits assumed, form in doubt): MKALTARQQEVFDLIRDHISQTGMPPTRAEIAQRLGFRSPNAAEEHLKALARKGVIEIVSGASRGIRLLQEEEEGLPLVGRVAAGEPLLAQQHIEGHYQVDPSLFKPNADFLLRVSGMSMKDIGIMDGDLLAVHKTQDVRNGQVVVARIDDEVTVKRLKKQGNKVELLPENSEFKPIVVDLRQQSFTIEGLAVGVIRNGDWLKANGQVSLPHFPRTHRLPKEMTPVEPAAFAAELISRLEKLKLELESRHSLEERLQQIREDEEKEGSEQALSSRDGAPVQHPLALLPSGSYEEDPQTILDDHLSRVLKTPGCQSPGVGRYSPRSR
T4 sequence (O88566 343-465 limits assumed): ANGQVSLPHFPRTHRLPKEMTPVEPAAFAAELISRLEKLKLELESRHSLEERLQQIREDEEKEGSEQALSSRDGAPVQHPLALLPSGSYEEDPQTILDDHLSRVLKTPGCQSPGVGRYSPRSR
T1 sequence (P27782 1-99): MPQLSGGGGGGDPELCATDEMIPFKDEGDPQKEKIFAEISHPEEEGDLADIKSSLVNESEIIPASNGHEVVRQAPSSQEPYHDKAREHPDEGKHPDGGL
Sequence of human APC amino acids His1012-Glu1215 (APC 15 amino acid repeats) fused to Lex-A (vector BTM 116) (human) (P0A7C2 other isoform, or with tags, fused parts or gaps limits assumed, form in doubt): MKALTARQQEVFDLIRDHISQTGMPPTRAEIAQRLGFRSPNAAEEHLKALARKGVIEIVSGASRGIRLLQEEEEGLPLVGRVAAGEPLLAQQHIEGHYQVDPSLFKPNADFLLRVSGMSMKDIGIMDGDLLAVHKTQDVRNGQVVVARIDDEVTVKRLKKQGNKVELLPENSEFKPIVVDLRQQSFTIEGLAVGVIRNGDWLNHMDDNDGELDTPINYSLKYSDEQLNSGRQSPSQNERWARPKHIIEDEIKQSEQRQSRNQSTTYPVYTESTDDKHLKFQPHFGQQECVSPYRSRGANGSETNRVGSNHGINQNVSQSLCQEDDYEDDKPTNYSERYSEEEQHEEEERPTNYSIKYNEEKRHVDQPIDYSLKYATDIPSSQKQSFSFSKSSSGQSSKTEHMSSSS
T5 sequence (P09803 773-884): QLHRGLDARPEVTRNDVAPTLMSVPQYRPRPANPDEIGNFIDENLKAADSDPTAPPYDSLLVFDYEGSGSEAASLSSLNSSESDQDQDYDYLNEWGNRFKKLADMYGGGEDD

| Molecule | share of the interaction with wild type β-catenin in percent [1] [%] | share of the interaction with wild type β-catenin in percent [2] [%] | share of the interaction with wild type β-catenin in percent [3] [%] | Interaction With LEF-1, share of wild type β-catenin interaction (LEF-1) | Interaction With APC-20, share of wild type β-catenin interaction [4] | Interaction With APC-15, share of wild type β-catenin interaction [5] | Interaction With Conductin, share of wild type β-catenin interaction (conductin) [%] | Interaction With E-Cadherin, share of wild type β-catenin interaction (E-cadherin) |
| --- | --- | --- | --- | --- | --- | --- | --- | --- |
| human β-catenin (Leu218-Leu781) mutant Lys 292 to alanine, Gal-4 activation domain fusion (from UniProt P35222 218-781) | 5 | 28 |  |  |  |  |  |  |
| human β-catenin (Leu218-Leu781) mutant Lys 435 to alanine, Gal-4 activation domain fusion (from UniProt P35222 218-781) | 42 |  | 30 |  |  |  |  |  |
| human β-catenin (Leu218-Leu781) mutant Trp 338 to alanine, Gal-4 activation domain fusion (from UniProt P35222 218-781) | 20 | 55 |  |  |  |  |  |  |
| human β-catenin (Leu218-Leu781) mutant Trp 383 to alanine, Gal-4 activation domain fusion (from UniProt P35222 218-781) |  | 0 | 59 |  |  |  |  |  |
| human β-catenin (Leu218-Leu781) mutant Phe 253 to alanine, Gal-4 activation domain fusion (from UniProt P35222 218-781) | 17 | 40 |  |  |  |  |  |  |
| B1 |  |  |  | — (Interactions marked by — correspond to 60–100% of the wild type interaction) | — (Interactions marked by — correspond to 60–100% of the wild type interaction) | — (Interactions marked by — correspond to 60–100% of the wild type interaction) | 42 | — (Interactions marked by — correspond to 60–100% of the wild type interaction) |
| B2 |  |  |  | — (Interactions marked by — correspond to 60–100% of the wild type interaction) | — (Interactions marked by — correspond to 60–100% of the wild type interaction) | — (Interactions marked by — correspond to 60–100% of the wild type interaction) | 36 | — (Interactions marked by — correspond to 60–100% of the wild type interaction) |
